Biological target: the molecule itself
Test: SEC

B1: F-BAR_(REMIND): the [70–347] region of TgREMIND with an N-terminal His-tag and five cysteines replaced (domain or fragment, Toxoplasma gondii, UniProt S8GLL7 70-347, looked up)
chain: APANATAENAFSFKEDLTSDWSLAVSRVDSGRTLLERLRAALLLRANAAVEQASKMESLVQTFVATNLESKTVMSAVNALRLEAVHQADHAREFAEAIRRDVVEGTLTNTIHNHYLVLQQIKADGSEAQKELTLATVDHQKAMHRYLRASKEAAAAAVKAQAAEGEAPNVRTELALSAIRRAVEAKAAEDEHRESVARLNAAAQANERKMAIILQSLQDMDEKRMLSFRDALRKAMVYQAAYLRNVQYDLEQTIKTVDAVDPMADLQEFLGKYRLPKK
stoichiometry N: 6
